Data from US20220282217A1 (BIONTECH US, published 2022).

Columns and labels:
[1] = target: HLA-A02.01 (human); assay: competition vs radiolabeled reference peptide on purified MHC I, gel filtration
Procedure: (§1) Peptides were incubated at varying concentrations with these complexes for 2 days, and the amount of remaining radiolabeled peptide bound to […] was measured using size exclusion gel-filtration.

[2] = target: T1, HLA class I molecule A02.01; assay: competition with radiolabeled reference peptide on purified MHC I
T1 construct: Purified MHC class I complex; also called HLA-A02:01
Procedure: as §1

[3] = target: HLA-A02.01 (human); assay: pMHC-I complex dissociation at 37 C, 125I-b2m, half-life
Procedure: Briefly, synthetic genes encoding biotinylated MHC-I heavy and light chains are expressed in E. coli and purified from inclusion bodies using standard methods. […] These reactions are carried out in streptavidin coated microplates to bind the biotinylated MHC-I heavy chains to the surface and allow measurement of radiolabeled light chain to monitor complex formation. Dissociation is initiated by addition of higher concentrations of unlabeled light-chain and incubation at 37° C. Stability is defined as the length of time in hours it takes for half of the complexes to dissociate, as measured by scintillation counts.

Binder	IC50 [1]	IC50 [2]	Stability (T1/2 (h)) [3]
VQWRSLGSL (also called C15ORF40(+1))	4730 nM	–	–
LIVSRTLLLV (also called MSH3(-1))	–	10900 nM	–
PLCDLLLEM (also called ESR1, Y537C)	602 nM	–	0.8 h
PLSDLLLEM (also called ESR1, Y537S)	404 nM	–	2.7 h
PLNDLLLEM (also called ESR1, Y537N)	151 nM	–	4.2 h
ALAPTLTHML (also called MLL2, . . ; LSPH)	–	39 nM	–
AIQPVLWTT (also called GATA3 . . ; CSNH)	–	8.1 nM	–
FFFETKSCSV (also called C15ORF40(+1))	61.2 nM	–	–
NVVPLCDLLL (also called ESR1, Y537C)	1370 nM	–	0 h
NVVPLSDLLL (also called ESR1, Y537S)	741 nM	–	0 h
NVVPLNDLLL (also called ESR1, Y537N)	4190 nM	–	0 h
CLIVSRTLLL (also called MSH3(-1))	–	2010 nM	–
FLLALWECS (also called MSH3(-1))	–	93.2 nM	–
FLSSWDYRRM (also called C15ORF40(+1))	324 nM	–	–
GLLLEMLDA (also called ESR1, D538G)	558 nM	–	0.4 h
ILIRKAMTV (also called EPHB2(-1))	19.5 nM	–	–
FKLFSCLSFL (also called C15ORF40(+1))	663 nM	–	–
ALWECSLPQA (also called MSH3(-1))	–	9 nM	–
RLWHLLLQVT (also called MLL2, . . ; LSPH)	–	50.9 nM	–
IIIEFMTYGN (also called ABL1, T315I)	–	–	0 h
VLQRFRFTHV (also called β2M, . . ; SQIS)	107 nM	–	–
SVCFFFFCYI (also called CNOT1(-1))	520 nM	–	–
KQWSSVTSL (also called EIF2B3(-1))	26.5 nM	–	–
AQAGVQWRSL (also called C15ORF40(+1))	670 nM	–	–
RLWHLLLQV (also called MLL2, . . ; LSPH)	–	1.3 nM	–
LQVTQTSFAL (also called MLL2, . . ; LSPH)	–	718 nM	–

Binder	IC50 [1]	IC50 [2]	Stability (T1/2 (h)) [3]
LLQVTQTSFA (also called MLL2, . . ; LSPH)	–	677 nM	–
IVSRTLLLV (also called MSH3(-1))	–	12.7 nM	–
VLPEPHLAL (also called GATA3 . . ; CSNH)	–	16 nM	–
PLYGLLLEM (also called ESR1, D538G)	640 nM	–	0.7 h
PLCDLLLEML (also called ESR1, Y537C)	2010 nM	–	0.9 h
PLNDLLLEML (also called ESR1, Y537N)	12000 nM	–	0 h
PLSDLLLEML (also called E5R1, Y537S (so in the source); ESR1, Y537S)	6470 nM	–	0 h
LLDILDTAGL (also called KRAS, Q61L)	–	716 nM	–
MSVCFFFFSV (also called CNOT1(+1))	1710 nM	–	–
NVVPLCDLL (also called ESR1, Y537C)	3030 nM	–	0 h
NVVPLSDLL (also called ESR1, Y537S)	916 nM	–	0 h
NVVPLNDLL (also called ESR1, Y537N)	2900 nM	–	0 h
GLSISCTTL (also called β2M, . . ; MPAV)	114 nM	–	–
FFFSVIFST (also called CNOT1(+1))	4560 nM	–	–
NVVPLYGLL (also called ESR1, D538G)	10500 nM	–	0 h
GVYTFLPST (also called ESR1, S463P)	779 nM	–	1.3 h
ALFFFFFET (also called C15ORF40(+1))	471 nM	–	–
ITAFFLLDI (also called NDUFC2 (-KCDT14)(-1))	–	78.7 nM	–
ILLPEDTPPL (also called MSH6(+1))	–	6.7 nM	–
LIMQLMPFGC (also called EGFR, T790M)	–	–	0.4 h
ALAPTLTHM (also called MLL2, . . ; LSPH)	–	59 nM	–
ALEEKKGNYV (also called EGFRvIII (internal deletion))	141 nM	–	0 h
TQISSATEYL (also called ABL1, M351T)	2640 nM	–	0 h
YITAFFLLDI (also called NDUFC2 (-KCDT14)(-1))	–	64.5 nM	–
ITAFFFCWI (also called NDUFC2 (-KCDT14)(+1))	–	7490 nM	–
LLPEDTPPL (also called MSH6(+1))	–	2.8 nM	–
